Results published in US20210277137A1.

Biological target: human CD40 on cells (human) (UniProt P25942)
Assay: cell-based or functional assay

Sequence of human CD40 on cells (human) (P25942 21-277 limits assumed): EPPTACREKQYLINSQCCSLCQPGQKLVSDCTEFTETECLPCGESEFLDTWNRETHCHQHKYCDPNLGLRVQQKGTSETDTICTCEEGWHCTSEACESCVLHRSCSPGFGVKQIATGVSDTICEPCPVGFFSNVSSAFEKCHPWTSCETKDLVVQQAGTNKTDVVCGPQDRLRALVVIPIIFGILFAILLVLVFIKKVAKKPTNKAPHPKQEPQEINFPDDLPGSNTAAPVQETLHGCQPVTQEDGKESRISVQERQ

Monocyte activation (THP1-Xblue, OD655): 0.12 OD655
moDC activation (IL-12p70, pg/mL): 139 pg/mL
Substance: literature CD40 antibody G28-5
